Our source for the Counts/minute bound and Counts/minute bound (counts/minute) values is patent publication US20040092720A1 (US Dept. of Health and Human Services, published 2004).

One assay has as its target T1, recombinant human IL-6 (human, UniProt P05231 30-212, labeled with radioactive iodine).
T1 construct: Labeled probe in solution, added to wells that carry the synthetic peptides; also called IL-6 ligand; Interleukin-6
The assay is described as follows: radioiodinated IL-6 on peptide array; experiment D11-D57. As to the method: (§1) Synthetic peptide arrays were constructed in 96-well microtiter plates in accordance with the method set forth in WO 91/02714 (Saxinger), and used to test the binding of recombinant human IL-6 that had been labeled with radioactive iodine (radiolabeling by standard methods). After incubating the radiolabeled IL-6 ligand in a well with each synthetic peptide, a washing step was performed to remove unbound label, and the relative level of radioactivity remaining in each well of the plate was evaluated to determine the relative affinity of each peptide for IL-6 ligand.
Consider IVLRFKKT [Peptide D40], for which the Counts/minute bound is 4450 counts/minute.
Turning to VLRFKKT (also called VLRFKKT) [Peptide D41], the Counts/minute bound was 2550 counts/minute.

Another assay concerns the target T1, recombinant human IL-6. The assay is described as follows: radioiodinated IL-6 on peptide array.
Target sequence in this assay (P05231 30-212 limits assumed): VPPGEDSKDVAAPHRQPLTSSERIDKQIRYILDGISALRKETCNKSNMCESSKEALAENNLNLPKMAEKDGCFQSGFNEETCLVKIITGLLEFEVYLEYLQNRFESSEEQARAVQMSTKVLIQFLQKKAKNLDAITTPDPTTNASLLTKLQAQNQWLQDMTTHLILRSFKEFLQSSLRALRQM
On to SDKAPCITDWQQEDGTVHRTYLRG [Peptide E47], for which the Counts/minute bound (counts/minute) came to 2080.
For PRSTPSLTTKAVLL [Peptide B8], the Counts/minute bound (counts/minute) came out at 1850.
Same read-out and setting: in the case of AAGSHPSRWAGMGRRL [Peptide A6] it was 1750; in that of LTCNILTFGQLEQNVYGITIISGL [Peptide E11], 1820.

A further assay addresses T1, recombinant human IL-6. The assay is described as follows: radioiodinated IL-6 on peptide array; experiment D1-D10. As to the method:
as §1
As for GGSLAFGTLLCIAIVLRFKKT (also called D11; D27) [Peptide D5], the Counts/minute bound turned out to be 159000 counts/minute.
On to TWKLRALKEGKTSMHPPYSLG [Peptide D9], for which the Counts/minute bound stood at 5530 counts/minute.
With CIAIVLRFKKTWKLRALKEGK [Peptide D7], the Counts/minute bound is 52500 counts/minute.
The same measure, in the same setting: next, ALKEGKTSMHPPYSLGQLVPE [Peptide D10]: 4970 counts/minute.
Take ATSLPVQDSSSVPLPTFLVAG [Peptide D1]: the Counts/minute bound amounted to 4000 counts/minute.
Consider FGTLLCIAIVLRFKKTWKLRA [Peptide D6], for which the Counts/minute bound turned out to be 144000 counts/minute.
Still for that read-out and setting: next, VQDSSSVPLPTFLVAGGSLAF [Peptide D2]: 4520 counts/minute.
Take SVPLPTFLVAGGSLAFGTLLC [Peptide D3]: the Counts/minute bound was determined as 19800 counts/minute.
For LRFKKTWKLRALKEGKTSMHP [Peptide D8], the Counts/minute bound turned out to be 20400 counts/minute.
Still for that read-out and setting: next, TFLVAGGSLAFGTLLCIAIVL [Peptide D4]: 32000 counts/minute.
